Experiments:
Type in all cases: biochemical
[1] = biological target: alcohol dehydrogenase (KpADH, SEQ ID NO: 1) mutant M63, K36I/T132D/N159D/K210E/T248A/Q272L (Vanderwaltozyma polyspora, UniProt A7TM80, K210E/K36I/N159D/Q272L/T132D/T248A); assay: Kinetic parameters in asymmetric reduction of (4-chlorophenyl)-(pyridin-2-yl)-methanone, mutant M63; settings: mutant M63 vs wild-type alcohol dehydrogenase
Method: (§1) The detection method of enzyme activity of the alcohol dehydrogenase is as follows:
(§2) A sodium phosphate buffer (PBS, 100 mM, pH 7.0) containing 1 mM NADPH and 1.0 mM substrate prochiral (4-chlorophenyl)-(pyridin-2-yl)-methanone is stood at 30° C. for 2 min, and then 10 μL of a pure enzyme solution is added to the sodium phosphate buffer, and reacted at 30° C. During the reaction, the change in absorbance of the reaction solution at 340 nm is measured on a microplate reader, and used to calculate the enzyme activity.
(§3) The initial reduction activity of wild-type alcohol dehydrogenase and alcohol dehydrogenase mutants M63, M64 and S5 obtained in Example 1 were respectively determined with 0.1-5 mM prochiral diaryl ketone (4-chlorophenyl)-(pyridin-2-yl)-methanone as a substrate. The data was fitted by the nonlinear regression method in Graph Pad Prism 7.0 software, to obtain the Km and Vmax in Michaelis-Menten equation. Then kcat and kcat/Km were calculated.
(§4) kcat is calculated by the formula kcat=Vmax·M/60, where M is the molecular weight of the enzyme, in kDa.

[2] = biological target: alcohol dehydrogenase (KpADH, SEQ ID NO: 1) mutant M64, K36I/T132D/N159D/K210E/T248A/Q272L/Q136N/F161V/S196G/E214G/S237C (Vanderwaltozyma polyspora, UniProt A7TM80, E214G/F161V/K210E/K36I/N159D/Q136N/Q272L/S196G/S237C/T132D/T248A); assay: Kinetic parameters in asymmetric reduction of (4-chlorophenyl)-(pyridin-2-yl)-methanone, mutant M64
Method: as §1, §2, §3, §4

[3] = biological target: alcohol dehydrogenase (KpADH, SEQ ID NO: 1) mutant S5, Q136N/F161V/S196G/E214G/S237C (Vanderwaltozyma polyspora, UniProt A7TM80, E214G/F161V/Q136N/S196G/S237C); assay: Kinetic parameters in asymmetric reduction of (4-chlorophenyl)-(pyridin-2-yl)-methanone, mutant S5; settings: mutant S5 vs wild type, to (S)-alcohol
Method: as §1, §2, §3, §4

[4] = system: O=C(c1ccc(Cl)cc1)c1ccccn1; assay: Kinetic parameters in asymmetric reduction of (4-chlorophenyl)-(pyridin-2-yl)-methanone, mutant M63; settings: other: mutant M63; 0.1-5 mM substrate; pH 7.0; 30.0 °C
Method: as §1, §2, §3, §4

[5] = system: O=C(c1ccc(Cl)cc1)c1ccccn1; assay: Kinetic parameters in asymmetric reduction of (4-chlorophenyl)-(pyridin-2-yl)-methanone, mutant M64; settings: other: mutant M64; 0.1-5 mM substrate; pH 7.0; 30.0 °C
Method: as §1, §2, §3, §4

[6] = system: O=C(c1ccc(Cl)cc1)c1ccccn1; assay: Kinetic parameters in asymmetric reduction of (4-chlorophenyl)-(pyridin-2-yl)-methanone, mutant S5; settings: other: mutant S5; 0.1-5 mM substrate; pH 7.0; 30.0 °C
Method: as §1, §2, §3, §4

[7] = system: O=C(c1ccc(Cl)cc1)c1ccccn1; assay: Kinetic parameters in asymmetric reduction of (4-chlorophenyl)-(pyridin-2-yl)-methanone, wild type; settings: other: wild type; 0.1-5 mM substrate; pH 7.0; 30.0 °C
Method: as §1, §2, §3, §4

O=C(c1ccc(Cl)cc1)c1ccccn1 [(4-chlorophenyl)-(pyridin-2-yl)-methanone]
catalytic efficiency relative to wild type [1]: 1.3 times
catalytic efficiency relative to mutant S5 ([2]; mutant M64 vs mutant S5): 1.35 times
catalytic efficiency compared with wild type ([2]; mutant M64 vs wild type, to (S)-alcohol): close to that of the wild type
catalytic efficiency compared with wild type [3]: decreased compared with the wild type

alcohol dehydrogenase (KpADH, SEQ ID NO: 1) mutant M63, K36I/T132D/N159D/K210E/T248A/Q272L (Vanderwaltozyma polyspora DSM 70294; K210E/K36I/N159D/Q272L/T132D/T248A)
Km [4]: 830 ± 200 µM
Vmax [4]: 32.8 µmol/min/mg
kcat [4]: 22.8 ± 2.14 s⁻¹
kcat/Km [4]: 27500 M⁻¹ s⁻¹

alcohol dehydrogenase (KpADH, SEQ ID NO: 1) mutant M64, K36I/T132D/N159D/K210E/T248A/Q272L/Q136N/F161V/S196G/E214G/S237C (Vanderwaltozyma polyspora DSM 70294; E214G/F161V/K210E/K36I/N159D/Q136N/Q272L/S196G/S237C/T132D/T248A)
Km [5]: 860 ± 140 µM
Vmax [5]: 25.1 µmol/min/mg
kcat [5]: 17.4 ± 1.1 s⁻¹
kcat/Km [5]: 20300 M⁻¹ s⁻¹

alcohol dehydrogenase (KpADH, SEQ ID NO: 1) mutant S5, Q136N/F161V/S196G/E214G/S237C (Vanderwaltozyma polyspora DSM 70294; E214G/F161V/Q136N/S196G/S237C)
Km [6]: 1090 ± 100 µM
Vmax [6]: 24.4 µmol/min/mg
kcat [6]: 16.1 ± 1.7 s⁻¹
kcat/Km [6]: 14800 M⁻¹ s⁻¹

wild-type alcohol dehydrogenase (KpADH), SEQ ID NO: 1 (Vanderwaltozyma polyspora DSM 70294)
Km [7]: 950 ± 100 µM
Vmax [7]: 31.8 µmol/min/mg
kcat [7]: 20.1 ± 1 s⁻¹
kcat/Km [7]: 21200 M⁻¹ s⁻¹
